Substitutions are numbered along the chain they refer to. Names may count otherwise.
T1: cynomolgus CD3 epsilon (cynomolgus monkey, UniProt Q95LI5 22-117, limits assumed)
T1 construct: Recombinant protein; also called cyno CD3E
T1 sequence: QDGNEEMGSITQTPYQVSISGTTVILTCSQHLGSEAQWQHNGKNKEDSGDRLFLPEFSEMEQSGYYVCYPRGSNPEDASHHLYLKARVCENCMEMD

B1: 2037-B10_Hc-Y61D (antibody, human IgG1, lambda, V domains shown)
VH: EVQLVESGGGLVKPGGSLRLSCAASGFTFNKYAMNWVRQAPGKGLEWVARIRTKYNNYATDYADSVKDRFTISRDDSKNTAYLQMNSLKTEDTAVYYCVRHGNFGNSYISYWAYWGQGTPVTVSS
VL: QTVVTQEPSLTVSPGGTVTLTCGSSTGAVTSGYYPNWLQQKPGQAPRGLIGGTKFLAPGTPARFSGSLLGGKAALTLSGVQPEDEAEYYCALWYSNRWVFGGGTQLTVTG
notes: human IgG1, lambda; also called SRP 2037 Y61D; 2037-B10_VH-Y61D
B2: SRP2037-B10 (antibody, V domains shown)
VH: not shown
VL: B1 VL
notes: human IgG1, lambda; also called 2037-B10 WT; 2037-B10 wt LC (lambda)
B3: 2037-B10-Lc6 (antibody)
heavy: not shown
light: DIQMTQSPSSLSASVGDRVTITCGSSTGAVTSGYYPNWLQQKPGQAPRGLIGGTKFLAPGVPSRFSGSLSGGKATLTISSLQPEDFATYYCALWYSNRWVFGGGTKVEIKRTVAAPSVFIFPPSDEQLKSGTASVVCLLNNFYPREAKVQWKVDNALQSGNSQESVTEQDSKDSTYSLSSTLTLSKADYEKHKVYACEVTHQGLSSPVTKSFNRGEC
notes: human IgG1, kappa; also called Kappa Lc6; Parent HC + Kappa Lc6
B4: 2037-B10-Lc3 (antibody)
heavy: not shown
light: B3 light with L69G, G72T, K73D, A74F
notes: human IgG1, kappa; also called Kappa Lc3
B5: 2037-B10-Lc1 (antibody)
heavy: not shown
light: B3 light with L39Y, Q45K, R48K, G49L, L69G, G72T, K73D, A74F
notes: human IgG1, kappa; also called Kappa Lc1
B6: 2037-B10-Lc4 (antibody)
heavy: not shown
light: B3 light with L39Y, Q45K, R48K, G49L
notes: human IgG1, kappa; also called Kappa Lc4
B7: 2037-B10-Lc8 (antibody)
heavy: not shown
light: DTQVTQSPSLSASVGDRVTITCGSSTGAVTSGYYPNWLQQKPGQAPRGLIGGTKFLAPGVPSRFSGSLSGGKATLTISSLQPEDFATYYCALWYSNRWVFGGGTKVEIKRTVAAPSVFIFPPSDEQLKSGTASVVCLLNNFYPREAKVQWKVDNALQSGNSQESVTEQDSKDSTYSLSSTLTLSKADYEKHKVYACEVTHQGLSSPVTKSFNRGEC
notes: human IgG1, kappa; also called Kappa Lc8
B8: 2037-B10-Lc5 (antibody)
heavy: not shown
light: B7 light with L68G, G71T, K72D, A73F
notes: human IgG1, kappa; also called Kappa Lc5; Parent HC + Kappa Lc5
B9: 2037-B10-Lc7 (antibody)
heavy: not shown
light: B7 light with L38Y, Q44K, R47K, G48L
notes: human IgG1, kappa; also called Kappa Lc7
B10: 2037-B10-Lc2 (antibody)
heavy: not shown
light: B7 light with L38Y, Q44K, R47K, G48L, L68G, G71T, K72D, A73F
notes: human IgG1, kappa; also called Kappa Lc2
B11: 2037-B10-Lc10 (antibody, V domains shown)
VH: not shown
VL: DTQVTQSPSLSASVGDRVTITCGSSTGAVTSGYYPNWLQQKPGQAPRGLIGGTKFLAPGVPSRFSGSLLGGKAALTISSLQPEDFAEYYCALWYSNRWVFGGGTKVEIKR
notes: human IgG1, kappa; also called Kappa Lc10
B12: 2037-B10-Lc9 (antibody, V domains shown)
VH: not shown
VL: B11 VL with E87T
notes: human IgG1, kappa; also called Kappa Lc9
B13: SMP1913-F04 (antibody, V domains shown)
VH: not shown
VL: B1 VL with L38F
notes: human IgG1, lambda; also called SP34-Hc + SP34-Lc3
B14: SMP1913-G08 (antibody, human IgG1, lambda, V domains shown)
VH: B1 VH with K13Q, G16R, A23T, V37F, T53S, D61Y, N79S, T80I, P120L
VL: B1 VL with L38F
notes: human IgG1, lambda; also called hSP34-Hc3 + SP34-Lc3
B15: SMP1913-G05 (antibody, human IgG1, lambda, V domains shown)
VH: B1 VH with K13Q, G16R, A23T, V37F, T53S, D61Y, N79S, T80I, P120L
VL: not shown
notes: human IgG1, lambda; also called hSP34-Hc3 + SP34-Lc
B16: SMP1913-H02 (antibody, V domains shown)
VH: not shown
VL: B1 VL with L38F
notes: human IgG1, lambda; also called hSP34-Hc4 + SP34-Lc3

These binders were tested against T2, human CD3 on T-cell lines (CD3-expressing Jurkat cells; HUT78 cells) (human, UniProt P07766 23-207) (assay: flow cytometry, HUT78 cells).
T2 construct: On cells it stands in the CD3/TCR complex
T2 sequence (P07766 23-207 limits assumed): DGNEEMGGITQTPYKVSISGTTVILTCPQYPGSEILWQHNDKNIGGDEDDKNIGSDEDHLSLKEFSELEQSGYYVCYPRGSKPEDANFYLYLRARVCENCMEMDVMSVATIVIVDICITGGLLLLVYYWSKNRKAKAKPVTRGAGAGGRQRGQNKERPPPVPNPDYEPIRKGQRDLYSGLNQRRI
For B1, the “Bmax (MFI)” value was 689 MFI and the Kd was 0.32 nM. For B2, the “Bmax (MFI)” value was 1040 MFI and the Kd was 0.15 nM.

Molecular target: T2, human CD3 on T-cell lines …
Assay: flow cytometry, HUT78 cells
Remark: another data set of the same source
For B3, the “Bmax (MFI)” value was 1320 MFI and the Kd was 0.8 nM. With B4 the “Bmax (MFI)” value was 1040 MFI and the Kd was 62.6 nM. With B5 the “Bmax (MFI)” value was 514 MFI and the Kd was 222 nM. In the case of B6, the “Bmax (MFI)” value is reported as 130 MFI and the Kd is reported as 30.4 nM. For B2, the “Bmax (MFI)” value was 1030 MFI and the Kd was 0.4 nM. For B7, the “Bmax (MFI)” value was 1250 MFI and the Kd was 0.3 nM. In the case of B8, the “Bmax (MFI)” value is reported as 1200 MFI and the Kd is reported as 40.7 nM. B9 was tested, and the “Bmax (MFI)” value was 737 MFI and the Kd was 338 nM. B10 was tested, and the “Bmax (MFI)” value was 63 MFI and the Kd was 24 nM. With B11 the “Bmax (MFI)” value was 1240 MFI and the Kd was 0.6 nM. For B12, the “Bmax (MFI)” value was 1230 MFI and the Kd was 0.4 nM.

Molecular target: T2, human CD3 on T-cell lines …
Assay: flow cytometry, HUT78 cells
Remark: another data set of the same source
With B3 the “HUT78 Bmax” value was 1780 and the Kd was 1.6 nM. For B1, the “HUT78 Bmax” value was 804 and the Kd was 18.8 nM. With B2 the “HUT78 Bmax” value was 1890 and the Kd was 2.33 nM. B8 was tested, and the “HUT78 Bmax” value was 1850 and the Kd was 47 nM.

What follows are binders tested against T3, human CD3 epsilon (Acro Cat #CDE-H5223) (human, UniProt P07766 23-126) (assay: SPR (Biacore), antibody captured, human CD3 epsilon analyte).
T3 construct: Bought recombinant protein; also called rhCD3E
T3 sequence (P07766 23-126 limits assumed): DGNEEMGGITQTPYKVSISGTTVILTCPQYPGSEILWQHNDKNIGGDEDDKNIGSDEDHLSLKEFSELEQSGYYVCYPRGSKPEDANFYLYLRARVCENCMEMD
Work on B1 yielded a Kd of 1.84 nM, a koff of 0.000591 s⁻¹ and a kon of 321000 M⁻¹ s⁻¹. B2 gave a Kd of 0.465 nM, a koff of 0.000222 s⁻¹ and a kon of 478000 M⁻¹ s⁻¹.

Molecular target: T3, human CD3 epsilon (Acro Cat #CDE-H5223)
Assay: as above
Remark: another data set of the same source
Experimental: Anti-Fab or anti-Fc polyclonal antibodies were immobilized onto a CM5 chip (GE Life Sciences) using amine coupling chemistry (from Amine Coupling Kit, GE Life Sciences). The immobilization steps were carried out at a flow rate of 25 μl/min in 1×HBS-EP+ buffer (GE Life Sciences; 10× Stock diluted before use). The sensor surfaces were activated for 7 min with a mixture of NHS (0.05 M) and EDC (0.2 M). The Anti-Fab or Anti-Fc antibodies were injected over all 4 flow cells at a concentration of 25 μg/mL in 10 mM sodium acetate, pH 4.5, for 7 min. Ethanolamine (1 M, pH 8.5) was injected for 7 min to block any remaining activated groups.
Off-rate and kinetic binding experiments were performed at 25° C. using 1×HBS-EP+ buffer. Test and control antibodies were injected over the anti-Fab or anti-Fc surface at concentrations of 5-10 μg/mL for 12 seconds at a flow rate of 10 μL/min on flow cells 2, 3 and 4, followed by a buffer wash for 30 seconds at the same flow rate. […] After capturing ligand (antibody) on the anti-Fc or anti-Fab surface, the analyte (human CD3 epsilon, Acro Cat #CDE-H5223) was bound for 180 seconds, followed by a 600 second dissociation phase at a flow rate of 50 μL/min. Between each ligand capture and analyte binding cycle, regeneration was carried out using two injections of 10 mM Glycine pH 2.0 for 30 seconds at 30 μL/min, followed by a 30 second buffer wash step.
The data was fit with the Biacore T200 Evaluation software, using a 1-1 Langmuir binding model. KD (affinity, nM) was determined as a ratio of the kinetic rate constants calculated from the fits of the association and dissociation phases.
For B3, the Kd was 0.648 nM, the koff was 0.000278 s⁻¹ and the kon was 430000 M⁻¹ s⁻¹. B4 showed a Kd of 7.15 nM, a koff of 0.000393 s⁻¹ and a kon of 55000 M⁻¹ s⁻¹. B5: no binding. B6: no binding. With B2 the Kd was 0.596 nM, the koff was 0.000306 s⁻¹ and the kon was 514000 M⁻¹ s⁻¹. B7 gave a Kd of 0.493 nM, a koff of 0.000267 s⁻¹ and a kon of 541000 M⁻¹ s⁻¹. With B8 the Kd was 12.2 nM, the koff was 0.000464 s⁻¹ and the kon was 38200 M⁻¹ s⁻¹. B9: no binding. B10: no binding. Binder B11 has a Kd of 0.464 nM, a koff of 0.000314 s⁻¹ and a kon of 677000 M⁻¹ s⁻¹. B12 gave a Kd of 0.511 nM, a koff of 0.000297 s⁻¹ and a kon of 580000 M⁻¹ s⁻¹.

Molecular target: T3, human CD3 epsilon (Acro Cat #CDE-H5223)
Assay: as above
Remark: another data set of the same source
For B3, the Kd was 1.96 nM, the koff was 0.000479 s⁻¹ and the kon was 244000 M⁻¹ s⁻¹. B1 gave a Kd of 3.42 nM, a koff of 0.000379 s⁻¹ and a kon of 111000 M⁻¹ s⁻¹. For B2, the Kd was 2.2 nM, the koff was 0.000564 s⁻¹ and the kon was 256000 M⁻¹ s⁻¹.

Each binder was assayed against T1, cynomolgus CD3 epsilon (assay: SPR (Biacore), antibody captured, cynomolgus CD3 epsilon analyte).
Binder B3 has a Kd of 0.413 nM, a koff of 0.000311 s⁻¹ and a kon of 753000 M⁻¹ s⁻¹. For B4, the Kd was 13.6 nM, the koff was 0.00069 s⁻¹ and the kon was 50600 M⁻¹ s⁻¹. B5: no binding. B6: no binding. For B2, the Kd was 0.416 nM, the koff was 0.000368 s⁻¹ and the kon was 884000 M⁻¹ s⁻¹. B7 was tested, and the Kd was 0.338 nM, the koff was 0.000311 s⁻¹ and the kon was 920000 M⁻¹ s⁻¹. Work on B8 yielded a Kd of 8.28 nM, a koff of 0.000478 s⁻¹ and a kon of 57700 M⁻¹ s⁻¹. B9: no binding. B10: no binding. Work on B11 yielded a Kd of 0.371 nM, a koff of 0.000404 s⁻¹ and a kon of 1.09e+06 M⁻¹ s⁻¹. Work on B12 yielded a Kd of 0.329 nM, a koff of 0.00034 s⁻¹ and a kon of 1.03e+06 M⁻¹ s⁻¹.

Molecular target: T1, cynomolgus CD3 epsilon
Assay: as above
Remark: another data set of the same source
B3 was tested, and the Kd was 0.56 nM, the koff was 0.000375 s⁻¹ and the kon was 670000 M⁻¹ s⁻¹. With B1 the Kd was 1.73 nM, the koff was 0.00123 s⁻¹ and the kon was 709000 M⁻¹ s⁻¹. In the case of B2, the Kd is reported as 0.418 nM, the koff is reported as 0.000344 s⁻¹ and the kon is reported as 824000 M⁻¹ s⁻¹.

The binders below were run against T2, human CD3 on T-cell lines … (assay: flow cytometry; signal on CD3+ Jurkat over CD3- Jurkat RT3-T3.5 cells).
Experimental: A high-throughput primary screen was performed to rapidly assess cell binding of antibodies produced in small-scale (60 μL) cell-free reactions. In this screen, four components are combined in equal volumes to a final volume of 100 μL/well in a U-bottom 96-well plate (Greiner Cat #650201) or flat bottom 384 well plate (Greiner Cat #781201). […] Plates are then incubated on ice for one hour. Cells are pelleted by spinning at 1500×g for 5 minutes and resuspended in assay buffer. High-throughput flow cytometry is then performed on resuspended cells on a FACS instrument (BD Biosciences FACS Canto II or BD Biosciences LSR II) and data is analyzed with FlowJo software. Antibody binding is assessed by the proportional level of secondary antibody signal (presumably due to binding to our antibody of interest) on Jurkat CD3-positive cells compared to the signal on Jurkat RT3.T3.5 CD3-negative cells.
B13 was tested, and the “FACS S/N (Jurkat/Jurkat RT3-T3.5 binding)” value was 5.1. In the case of B14, the “FACS S/N (Jurkat/Jurkat RT3-T3.5 binding)” value is reported as 1. For B15, the “FACS S/N (Jurkat/Jurkat RT3-T3.5 binding)” value was 0.8. For B16, the “FACS S/N (Jurkat/Jurkat RT3-T3.5 binding)” value was 1.

— patent publication US20240124585A1 (SUTRO BIOPHARMA, published 2024)
